Data published in the nanobody polyreactivity screen of Harvey et al. (2022).

Experiment: yeast display, Sf9 membrane polyspecificity reagent, FACS + sequencing; frameworks hold sequencing errors
Method in brief: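 Synthetic nanobody libraries on Saccharomyces cerevisiae BJ5465 were galactose-induced for 36–48 hours, stained 1 hour at 4 °C with 10% biotinylated, detergent-solubilized Sf9 membrane reagent and enriched on streptavidin microbeads. FACS then separated cells into low and high (top ~1%) gates by anti-HA (expression) and streptavidin (reagent binding) fluorescence. Genes were colony-PCR amplified, MiSeq 2 × 250 sequenced and CDR-length filtered. A clone's polyreactivity label is that of its gate of origin.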

Row | Sequence | polyreactivity (PSR sort gate)
1 | QVQLVESGGGLVQAGGSLRLSCAASGYTFDDYEMGWYRQAPGKERELVAAISRGGSTYYADSVKGRFTISRDNEKNTVYFQMNSLKPEDTAVYYCGAVYRVRKITYDYWGQGTQVTVSS | high polyreactivity
2 | QVQLVESGGGLVQAGGSLRLSCAASGRTFYYYTMGWYRQAPGKERELVAAIRGSGRTYYADSVKGRFTISRDNAKNTVYLQMNSLKPEDTAVYYCAAETGYTIRYDYWGQGTQVTVSS | high polyreactivity
3 | QVQLVESGGGLVQAGGSLRLSCAASGSISNRNAMGWYRQAPGKERELVAAITYSGGSTYYADSVKGRFTISRDNAKNTVYLQMNSLKPEDTAVYYCAKDHYRFRYDYWGQGTQVTVSS | low polyreactivity
4 | QVQLVESGGGLVQAGGSLRLSCAASGSTFGGNAMGWYRQAPGKERELVAVISKRGGSTYYADSVKGRFTISRDYAKNTVYLQMNSLKPEDTAVYYCAATYSRYWSPTYDYWGQGTQVTVSS | high polyreactivity
5 | QVQLVESGGGLVQAGGSLRLSCAASGRIFWDNAMGWYRQAPGKVRELVAVMNSGDSTNYADSVKGRFTISRDNAKNTVYLQMNSLKPEDTAVYYCATDFIGVIYDYWGQGTQVTVSS | low polyreactivity
6 | QVQLVESGGGLVQAGGSLRLSCSASGNIIRKYAMGWYRQAPGKEREFVAAISSSGGRTYYADSVKGRFTISRDNAKNTVYLQMNSLKPEDTAVYYCAKDPYGRLQPRPRFGYWGQGTQVTVSS | high polyreactivity
7 | QVQLVESGGGLVQAGGSLRLSCAASGRTIRYYSMGWYRQAPGKESELVAAINYSGGRTYYADSVKGRFTISRDNSMNTVYLQLNSLKPEDTAVYYCNAVLGPYFPKFDYWGQGTQVTVSS | high polyreactivity
8 | QVQLVESGGGLVQAGGSLRLSCAASGSTFTVNTMGWYRQAPGKERELVAAISFGGGPTYYADSVKGRFTISRDNAKNTVYLQMNSLKPEDTAVYSCAARGSLWNARKYYYWGQGTQVTVSS | high polyreactivity
9 | QVQLVESGGGLVQAGGSLRLTCAASGGTFRRYTMGWYRQAPGKERELVAVISRSGGSTYYADSVKGRFTISRDNAKNTVYLQMNRLKPEDTAVYYCAVVYYNGYDWGQGTQVTVSS | high polyreactivity
10 | QVQLVESGGGLVQAGGSLRLSCAASGRIFGIYAMGWYRQAPGKERELVATITDSDDSTYYADSVKGRFTISRDNAKNTVYLQMNSLKPEDTAVYYCAAADGIYARYFFSRFPRFDYWGQGTQVTVSS | low polyreactivity
11 | QVQLVESGGGLVQAGGSLRLSCAASGFILAYYAMGWSRQAPGKERELVAAISIGSSTDYADSVKGRFTISRDNAKNTVYLQINSVKPEDTAVYDFAARDYYYEYDYWGQGTQVTVSS | low polyreactivity
12 | QVQLVESGGGLVQEGGSLRLSCAASGSHFTRYVMGWYRPAPGKERELVAAITTGGSTYYADSVKGRFTISLDNAKNTVYLQMNSLKPEDTAVYYCAADRRTVSYKYNYWGQGTQVTVSS | high polyreactivity
13 | QVQLVESGGVLVQAGGSIRLSCAASGRIIYKNAMGWYRQAPGKERELVAAITSSGGSTYYADSVKGRFTISRDNAKITVYFQMNSLKPEDTAVYYCAAYAYGRFGKLNYWGQGTQVTVSS | low polyreactivity
14 | QVQLVESGGGLVQAGGSLRLSCAASGFTFSRNAMGWYRQAPGKERELVAAIDSGGSTDYADSVKGRFTISRDNAKNTVYLQMNSLKPEDSAVYYCAKASSATRYVQLRQDYDYWGQGTQVTVSS | low polyreactivity
15 | QVQLVESGGGLFQAGGSLRLSCAASGFISSGNTMAWYRQAPGKERELVAAISGSGGRTYYADSVKGRFTISRDNAKNTVYLQMNSLKPEDTAVYYCATPLQQLYGYWGQGTQVTVSS | low polyreactivity
16 | QVQLVESGGGLVQAGGSHRLSCAASGRILPGYAMGWYRPAPGKERELVAAITTGGSTYYADSVKGRFTISRDNAKNTVYLQMNSLKPEDTAVYYCAKLYSYVGWGGQFDYWGQGTQVTVSS | low polyreactivity
17 | QVQLVESGGGLVQAGGSLRLSCAASGFIFSYYAMGWYRQAPGKEREFVAAISRRGGSTYYADSVKGRFTISRDNAKNTVYLQMISLKPDDSAVYYCARRRTSTAVREHYYRDWYGYDYWGQGTQVTVSS | high polyreactivity
18 | QVQLVESGGGLVQAGGSLRLSCAASGSTFYSYTMGWYRQAPGKERELVASITRGGSTYYADSVKGRFTISRDNAKNTVYLQLNSLKPEDTAVYYCAARGRYSIARYDYWGQGTQVTVSS | high polyreactivity
19 | QVQLVESGGGLVQAGGSLRLSCAASGSIFGYYAMGWYRQAPGKERELVAAISRRGGRTYYADSVKGRFTISRDNAKNTVYLQMNSLKPEDTAVYYCAAAVSVSASPYTGFDYWGQGTQVTVSS | high polyreactivity
20 | LEQLVESGGGLVHAGGSLRLSCAASRSNFPQYTLGWNRQAPVKERELVAAISNYGSSTYYADSEKGRFTISRDYAKNSVSLQMNSLKPEDTAVYECNADDYGYYPGVNYWGQGTQVTVSS | low polyreactivity
21 | QVQLVESGGGLVQAGGSLRLSCAASGNTFYYYAMGWYRQAPGKERELVASITWRGGDTYYADSVKGRFTISRDNAKNTVYLQMNSQKPEDTAVFYFAKPRLGRYDSMSYLGDYAGYVYWGQGTQVTLSS | low polyreactivity
22 | QVQLVESGGGLVQAGGSLRLSCAASGSIFDVYAMGWYRQAPGKERELVATISNSAGSTYYADSVKGRFTISRDNAKNTVYLQMNSLKPEDTAVYYCAAVVVYFDEYDYWGQGTQVTVSS | low polyreactivity

Row | Sequence | polyreactivity (PSR sort gate)
23 | QVQLVESRGGLVQAGGSLRLSCAASGSTFGQYPMGSYRQEPGKERELVATITSPGSTNYADSVKGRFTISRDNAKNTVYFQMNSLKPEDSAVYYCNAVTGYWDGTEARQPYDYWGQGTQVTVSS | low polyreactivity
24 | QVQLVESGGGLVQAGGSLRLSCAASGRIFRFYAMGWYRKAPGKERELVAAITRNVGSTFYADSVKGRFTISRDNAKKTVYLQMNSLKPADTAVYYCAAESDYYYRYTFDYWGQGTQVTVSS | low polyreactivity
25 | QGQLVESGGGLVQAGGSLRLSCAASGRIFVTYAMGWYRQAPGKERELVATINSGGSTYYADSVKGRFTISRDNAKNTVYLQMNSLKPEDTAVYYCNTDFGQAHTLSWYEDMDYWGQGTQVTVSS | low polyreactivity
26 | QVQLVESGGGLVQAGGSLRLSCAASGSIFFPYAMGWYIQAPGKERELVAAITGSTGSTYYADSVKGRFTISRDNAKNTVYLQMNSLKPEDTAVYYCAAAEYFVSGGIMDYWGQGTQVTVSS | high polyreactivity
27 | QVQLVESGGGLVQAGGSLRLSCAASGSISDVYAMGWYRQAPGKERELVAAYADSVKGRFTISRDNAKNTVYLQMNCLKPVDTAVYYCNFVETSQELGWQAFDYWGQGTQVTVSS | low polyreactivity
28 | QVQLVESGGGLVQAGGSLRLSCAASGIILWYNVMGWYRQAPGKERELVASITGDGDDTYYADSVKGRFTMSRDNAKNTVYLQMNSLKPEDTAVYYCAKENYGILYSTLYDYWGQGTQVTVSS | low polyreactivity
29 | QVQLVESGGGIVQAGGSLRLSCAASGRIFIWYDMGWYRQAPGKERELVAAITQSDDITYYADSVKGRFTISLDNAKNTVYLQMNSLKPEDTAVYYCAVDKPYPYRIIIWYEYDYWGQGTQVSVSS | low polyreactivity
30 | QVQLVESGGGLVQAGGSLRLSCAASGIIRHNAMGCYRPAPGKERELVAGISRRGGSTYYADSVKGRFTISRDNAKNTVYLQMNSLKPEDTAVYYCNARSAGSDLDYWGQGTQVTVSS | high polyreactivity
31 | QVQLVESGGGLVQAGGRLRLSCAASGNTFGPYDMGWYRQAPGKERELVAGITSGGSTYYADSVKGRFTISRDNAKITVYLQMNSLKPEDTAVYYCAADYFLWVYWYDYWGQGTQVTVSS | high polyreactivity
32 | QVHLVESGGGLVQAGGSLRLSCAASGILRLNAMGWYRQAPGKEREFVATISRSGGITYYADSVKGRFTISRDNAKNTVYLQMNSLKPEDTAVYYCAKGGYSLYGYWGQGTQVTVSS | high polyreactivity
33 | QVQLVESGGGLVQAGGSLRLSCAASGIIFVRYAMGWYRQAPGKERELVAAISWSGGSTYYADSVKGRFTISRDNAKNTVYLQMNSLKPEDTAVYYCAADSHRTRGDARYYYWGQGTQVTVSS | high polyreactivity
34 | QVQLVESGGGLVQAGGSLRLSCAASGFTFGRYAMGWYRQAPGKERELVATITRSGVNTYYADSVKGRFTISRDNAKNTVYLQMNSLKPEDTAVYYCAAVEIWYWGFTQYEYWGQGTQVTVSS | high polyreactivity
35 | QVQLVESGGGLVQAGGTLRLSCAASGRTLHGYAMGWYRQAPGKERELVASITWSGASTYYADSVKGRFTISRDNAKNTVYLQMNSLKPEDTAVYYCAADRSRYVRRRYGYWGQGTQVTVSS | high polyreactivity
36 | QVQLVESGGGLVQAGGSLRLSCAASGRTSWYYAMGWYRQAPGKERELVAAISVRAGSTYYADSVKGRFTISRDNAKNTVYLQMNSLKPEDTAVYYCAREYSPYTSRRDYWGQGTQVTVSS | high polyreactivity
37 | QVQLVESGGGLVQAGASLRLSRAASGLIFYRYAMGLYRPAPGKERELVAAITSGGSTYYADSVKGRFTISRDNAKNTVYLQMNSLKPEDTAVYYCAAFYVPTYYYSPYGYWGQGTQVTVSS | high polyreactivity
38 | QVQLVESGGGLVQAGGSLRLSCAASGRIIPRNAMGWYRQEPGKERELVAGISRGGSTYYADSVKGRFTISRDNAKNSVYLQMNSLKPEDTAVYYCAAAYQKSPITPNMDYWGQGTQVTVSS | low polyreactivity
39 | QVQLGESGGGLVQAGGSLRLSCAASGNTFFTYAMGWYRQAPGKERELVAVITSVGSTNYADSVKGRFTISRDNAKNTVYLQMNSLKPEDTAVYYCAARTRRGLARYDYWGHGTQVTVSS | high polyreactivity
40 | QVQLVESGGGLVQAGGSLRLSCAASGSTFGINAMGWSRQAPGKERELVAAINSGTRTYYADSVKGRFTISRDNAKNNVYLQMNSLKPEDTAVYYCAARGVVGASGYYYWGQGTQVTVSS | high polyreactivity
41 | QGQLVESGGGLVQAGGSLRLSCAASGSSFANYDMGRYRQAPGKERELVAAITSDGSTYYADSVKGRFTISRDNAKNTVYLQMNSLKPEDTAVYYCAASTPSDAWVDDWGQGTQVTVSS | low polyreactivity
42 | QVQLGESGGGLVQAGGSLRVICAASGFIFRDYAMGWYIQAPGKERELFAAIRSTTGSTYYADSVKGRFTISRDNSKNTVYLQMNSLKPEDTAVYYCAAAYPFYADMDYSGQGTQVTVSS | low polyreactivity
43 | QVQLVESGGGLVQAGGSLRLSCAASGRTFPIYAMGWYRQAPGKERELVAAITYSGGSTYYADSVKGRFTISRDNAKNTVYLQMNSLKPEDTAVYYCAVDGTKPYWHQRYDYWGQGTQVTVSS | low polyreactivity
